# Measurements published in PMC9352680, “A comprehensive thermodynamic model for RNA binding by the Saccharomyces cerevisiae Pumilio protein PUF4”.
# T1: PUF4 RNA-binding domain (Saccharomyces cerevisiae, UniProt P25339 537-888)
# T1 sequence: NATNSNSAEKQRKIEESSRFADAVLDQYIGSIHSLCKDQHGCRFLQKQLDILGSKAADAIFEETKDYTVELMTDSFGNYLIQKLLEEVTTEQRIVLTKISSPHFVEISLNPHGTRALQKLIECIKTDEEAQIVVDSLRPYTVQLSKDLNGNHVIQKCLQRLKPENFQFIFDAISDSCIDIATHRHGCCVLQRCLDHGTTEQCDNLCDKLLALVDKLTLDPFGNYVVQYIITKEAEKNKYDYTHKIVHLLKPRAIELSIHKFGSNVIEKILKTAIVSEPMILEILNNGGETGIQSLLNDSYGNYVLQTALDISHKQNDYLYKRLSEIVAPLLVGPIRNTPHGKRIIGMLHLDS
# Biological target: T1, PUF4 RNA-binding domain
# Assay: Mg; RNA-MaP; 20 mM Na-HEPES pH 7.4, 30 mM KOAc, 0.75 mM MgCl2, 0.1% Tween-20, 5% glycerol, 0.1 mg/mL BSA, 2 mM DTT; 25 C; 0.0125-409.6 nM protein
# Conditions: tags: N-His6-TEV cleaved; C-SNAP kept, Cy3B-labelled; label: tethered on chip by stalled RNA polymerase
row,Binder,Kd
1,UCUCUUUGUGUAUAAUCUCUU (ssRNA) [Ib_S1_P4E.1_K4.1_C4.1_H4.1_[A4G]_A4.1_F4.1_[T8A]_T4.1],11.4 nM
2,UCUCUUUGUUUAUCAUCUCUU (ssRNA) [Ib_S1_P4E.1_K4.1_C4.1_H4.1_[A4T]_A4.1_F4.1_[T8C]_T4.1],917 nM
3,UCUCUUUGUGUAUCAUCUCUU (ssRNA) [Ib_S1_P4E.1_K4.1_C4.1_H4.1_[A4G]_A4.1_F4.1_[T8C]_T4.1],30.1 nM
4,UCUCUUUGUCUAUAAUCUCUU (ssRNA) [Ib_S1_P4E.1_K4.1_C4.1_H4.1_[A4C]_A4.1_F4.1_[T8A]_T4.1],1620 nM
5,Ic_S2_P5E.1_K5.1_C5.1_H5.1_A5.1_[T5A]_[T6C]_[A7G]_F5.1_[T9A]_[A10G]_T5.1 (ssRNA) RNA: UUUGAUUAAUAUGAUAUCGUUCUUUCUUGUAACGUAGUUCUUUCUCGAUAUCAUAUUAAUCUUU,69.1 nM
6,Ic_S2_P5E.1_K5.1_C5.1_H5.1_A5.1_[T5C]_[T6A]_[A7C]_F5.1_[T8C]_[T9A]_[A10T]_T5.1 (ssRNA) RNA: UUUGAUUAAUAUGAUAUCGUUCUUUCUUGUACACCAUUUCUUUCUCGAUAUCAUAUUAAUCUUU,14.9 nM
7,Ic_S2_P5E.1_K5.1_C5.1_H5.1_A5.1_[A7T]_F5.1_[T8C]_[T9A]_T5.1 (ssRNA) RNA: UUUGAUUAAUAUGAUAUCGUUCUUUCUUGUAUUUCAAUUCUUUCUCGAUAUCAUAUUAAUCUUU,389 nM
8,Ic_S2_P5E.1_K5.1_C5.1_H5.1_A5.1_[T5G]_[T6C]_F5.1_[T8G]_[T9C]_[A10T]_T5.1 (ssRNA) RNA: UUUGAUUAAUAUGAUAUCGUUCUUUCUUGUAGCAGCUUUCUUUCUCGAUAUCAUAUUAAUCUUU,905 nM
9,Ic_S2_P5E.1_K5.1_C5.1_H5.1_A5.1_[T5A]_[T6A]_[A7C]_F5.1_[T9A]_T5.1 (ssRNA) RNA: UUUGAUUAAUAUGAUAUCGUUCUUUCUUGUAAACUAAUUCUUUCUCGAUAUCAUAUUAAUCUUU,1.9 nM
10,Ic_S2_P5E.1_K5.1_C5.1_H5.1_A5.1_[T5A]_[A7G]_F5.1_[T8G]_T5.1 (ssRNA) RNA: UUUGAUUAAUAUGAUAUCGUUCUUUCUUGUAAUGGUAUUCUUUCUCGAUAUCAUAUUAAUCUUU,48.9 nM
11,Ic_S2_P5E.1_K5.1_C5.1_H5.1_A5.1_[A7T]_F5.1_[T8C]_[T9G]_[A10T]_T5.1 (ssRNA) RNA: UUUGAUUAAUAUGAUAUCGUUCUUUCUUGUAUUUCGUUUCUUUCUCGAUAUCAUAUUAAUCUUU,86.5 nM
12,Ic_S2_P5E.1_K5.1_C5.1_H5.1_A5.1_[A7G]_F5.1_[T8C]_[T9C]_T5.1 (ssRNA) RNA: UUUGAUUAAUAUGAUAUCGUUCUUUCUUGUAUUGCCAUUCUUUCUCGAUAUCAUAUUAAUCUUU,497 nM
13,Ic_S2_P5E.1_K5.1_C5.1_H5.1_A5.1_[T5A]_[T6A]_[A7T]_F5.1_[T8A]_[T9A]_[A10C]_T5.1 (ssRNA) RNA: UUUGAUUAAUAUGAUAUCGUUCUUUCUUGUAAAUAACUUCUUUCUCGAUAUCAUAUUAAUCUUU,30.3 nM
14,Ic_S2_P5E.1_K5.1_C5.1_H5.1_A5.1_[T5C]_[T6C]_F5.1_[T9A]_[A10C]_T5.1 (ssRNA) RNA: UUUGAUUAAUAUGAUAUCGUUCUUUCUUGUACCAUACUUCUUUCUCGAUAUCAUAUUAAUCUUU,1.13 nM
15,Ic_S2_P5E.1_K5.1_C5.1_H5.1_A5.1_[T5A]_F5.1_[T9A]_[A10T]_T5.1 (ssRNA) RNA: UUUGAUUAAUAUGAUAUCGUUCUUUCUUGUAAUAUAUUUCUUUCUCGAUAUCAUAUUAAUCUUU,1.32 nM
16,Ic_S2_P5E.1_K5.1_C5.1_H5.1_A5.1_[A7C]_F5.1_[T8G]_[T9G]_[A10T]_T5.1 (ssRNA) RNA: UUUGAUUAAUAUGAUAUCGUUCUUUCUUGUAUUCGGUUUCUUUCUCGAUAUCAUAUUAAUCUUU,475 nM
17,Ic_S2_P5E.1_K5.1_C5.1_H5.1_A5.1_[T5A]_[T6A]_[A7C]_F5.1_[T8G]_[T9C]_[A10C]_T5.1 (ssRNA) RNA: UUUGAUUAAUAUGAUAUCGUUCUUUCUUGUAAACGCCUUCUUUCUCGAUAUCAUAUUAAUCUUU,611 nM
18,Ic_S2_P5E.1_K5.1_C5.1_H5.1_A5.1_[T5A]_[T6C]_[A7T]_F5.1_[T8G]_[T9C]_[A10T]_T5.1 (ssRNA) RNA: UUUGAUUAAUAUGAUAUCGUUCUUUCUUGUAACUGCUUUCUUUCUCGAUAUCAUAUUAAUCUUU,189 nM
19,Ic_S2_P5E.1_K5.1_C5.1_H5.1_A5.1_[A7T]_F5.1_[T8A]_[A10G]_T5.1 (ssRNA) RNA: UUUGAUUAAUAUGAUAUCGUUCUUUCUUGUAUUUAUGUUCUUUCUCGAUAUCAUAUUAAUCUUU,15.8 nM
20,Ic_S2_P5E.1_K5.1_C5.1_H5.1_A5.1_[T5C]_[T6C]_F5.1_[A10T]_T5.1 (ssRNA) RNA: UUUGAUUAAUAUGAUAUCGUUCUUUCUUGUACCAUUUUUCUUUCUCGAUAUCAUAUUAAUCUUU,2.17 nM
21,Ic_S2_P5E.1_K5.1_C5.1_H5.1_A5.1_[T5C]_[T6A]_[A7C]_F5.1_[T8A]_[T9A]_T5.1 (ssRNA) RNA: UUUGAUUAAUAUGAUAUCGUUCUUUCUUGUACACAAAUUCUUUCUCGAUAUCAUAUUAAUCUUU,10.8 nM
22,Ic_S2_P5E.1_K5.1_C5.1_H5.1_A5.1_[T6C]_[A7T]_F5.1_[T8A]_[A10C]_T5.1 (ssRNA) RNA: UUUGAUUAAUAUGAUAUCGUUCUUUCUUGUAUCUAUCUUCUUUCUCGAUAUCAUAUUAAUCUUU,12.7 nM
23,Ic_S2_P5E.1_K5.1_C5.1_H5.1_A5.1_[T6C]_[A7T]_F5.1_[T8A]_[T9G]_[A10C]_T5.1 (ssRNA) RNA: UUUGAUUAAUAUGAUAUCGUUCUUUCUUGUAUCUAGCUUCUUUCUCGAUAUCAUAUUAAUCUUU,23.8 nM
